Blank lines part the entries; values can stand above or below the binder they belong to. *1 amine or outer side, *2 acyl side, *3 side chain or, on linkers, in order; H or OH if unused. Where no end group is shown, it is not given here. The star is where a group is joined. C22 diacid = O=C(O)CCCCCCCCCCCCCCCCCCCCC(=O)*; C20 diacid = O=C(O)CCCCCCCCCCCCCCCCCCC(=O)*; γGlu = O=C(O)[C@H](CCC(=O)[*:2])N[*:1]; AEEA = NCCOCCOCC(=O)O
Target: T1, human amylin receptor (AMY3) on CHO-K1/Gal5/AMY3 cells (human, UniProt P30988 25-474; O60896 24-148)
T1 sequence (looked up) 1: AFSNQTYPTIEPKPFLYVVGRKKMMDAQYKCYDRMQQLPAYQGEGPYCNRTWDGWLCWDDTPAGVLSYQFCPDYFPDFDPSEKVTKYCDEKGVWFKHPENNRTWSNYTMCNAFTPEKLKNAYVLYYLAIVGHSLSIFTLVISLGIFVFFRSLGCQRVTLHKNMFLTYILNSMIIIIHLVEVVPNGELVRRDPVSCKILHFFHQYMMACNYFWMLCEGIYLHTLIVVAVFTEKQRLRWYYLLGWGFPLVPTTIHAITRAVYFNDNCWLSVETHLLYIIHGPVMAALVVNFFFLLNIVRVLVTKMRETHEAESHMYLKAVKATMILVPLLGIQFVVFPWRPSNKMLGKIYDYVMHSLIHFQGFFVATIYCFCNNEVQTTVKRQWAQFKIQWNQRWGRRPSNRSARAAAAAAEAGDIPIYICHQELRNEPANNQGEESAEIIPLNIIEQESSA
T1 sequence (looked up) 2: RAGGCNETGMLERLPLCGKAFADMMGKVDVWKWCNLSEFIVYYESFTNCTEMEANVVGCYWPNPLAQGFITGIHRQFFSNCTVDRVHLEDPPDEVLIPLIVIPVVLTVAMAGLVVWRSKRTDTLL
Test: cell-based or functional assay

B1: calcitonin derivative M20 (peptide)
peptide: {C20 diacid-γGlu}-ASQLSTAVLGRLSQELHRLQDYPRTDVGAESP-NH2
SMILES: CC(C)C[C@H](NC(=O)[C@H](CCCNC(=N)N)NC(=O)CNC(=O)[C@H](CC(C)C)NC(=O)[C@@H](NC(=O)[C@H](C)NC(=O)[C@@H](NC(=O)[C@H](CO)NC(=O)[C@H](CC(C)C)NC(=O)[C@H](CCC(N)=O)NC(=O)[C@H](CO)NC(=O)[C@H](C)NC(=O)CC[C@H](NC(=O)CCCCCCCCCCCCCCCCCCC(=O)O)C(=O)O)[C@@H](C)O)C(C)C)C(=O)N[C@@H](CO)C(=O)N[C@@H](CCC(N)=O)C(=O)N[C@@H](CCC(=O)O)C(=O)N[C@@H](CC(C)C)C(=O)N[C@@H](Cc1c[nH]cn1)C(=O)N[C@@H](CCCNC(=N)N)C(=O)N[C@@H](CC(C)C)C(=O)N[C@@H](CCC(N)=O)C(=O)N[C@@H](CC(=O)O)C(=O)N[C@@H](Cc1ccc(O)cc1)C(=O)N1CCC[C@H]1C(=O)N[C@@H](CCCNC(=N)N)C(=O)N[C@H](C(=O)N[C@@H](CC(=O)O)C(=O)N[C@H](C(=O)NCC(=O)N[C@@H](C)C(=O)N[C@@H](CCC(=O)O)C(=O)N[C@@H](CO)C(=O)N1CCC[C@H]1C(N)=O)C(C)C)[C@@H](C)O
- EC50/nM, CRE-luciferase in amylin receptor/CRE-luc CHO cells: 0.017 nM

B3: calcitonin derivative M52 (peptide)
peptide: {C20 diacid}-EASQLSTAVLGRLSEELHRLQDYPRTDVGSGSP-NH2
SMILES: CC(C)C[C@H](NC(=O)[C@H](CCCNC(=N)N)NC(=O)CNC(=O)[C@H](CC(C)C)NC(=O)[C@@H](NC(=O)[C@H](C)NC(=O)[C@@H](NC(=O)[C@H](CO)NC(=O)[C@H](CC(C)C)NC(=O)[C@H](CCC(N)=O)NC(=O)[C@H](CO)NC(=O)[C@H](C)NC(=O)[C@H](CCC(=O)O)NC(=O)CCCCCCCCCCCCCCCCCCC(=O)O)[C@@H](C)O)C(C)C)C(=O)N[C@@H](CO)C(=O)N[C@@H](CCC(=O)O)C(=O)N[C@@H](CCC(=O)O)C(=O)N[C@@H](CC(C)C)C(=O)N[C@@H](Cc1c[nH]cn1)C(=O)N[C@@H](CCCNC(=N)N)C(=O)N[C@@H](CC(C)C)C(=O)N[C@@H](CCC(N)=O)C(=O)N[C@@H](CC(=O)O)C(=O)N[C@@H](Cc1ccc(O)cc1)C(=O)N1CCC[C@H]1C(=O)N[C@@H](CCCNC(=N)N)C(=O)N[C@H](C(=O)N[C@@H](CC(=O)O)C(=O)N[C@H](C(=O)NCC(=O)N[C@@H](CO)C(=O)NCC(=O)N[C@@H](CO)C(=O)N1CCC[C@H]1C(N)=O)C(C)C)[C@@H](C)O
- EC50/nM, CRE-luciferase in amylin receptor/CRE-luc CHO cells: 0.017 nM

B4: calcitonin derivative M37 (peptide)
peptide: {C20 diacid-γGlu}-KSQLSTDVLGRLSQELHRLQDYPRTDVGSGSP-NH2
SMILES: CC(C)C[C@H](NC(=O)[C@H](CCCNC(=N)N)NC(=O)CNC(=O)[C@H](CC(C)C)NC(=O)[C@@H](NC(=O)[C@H](CC(=O)O)NC(=O)[C@@H](NC(=O)[C@H](CO)NC(=O)[C@H](CC(C)C)NC(=O)[C@H](CCC(N)=O)NC(=O)[C@H](CO)NC(=O)[C@H](CCCCN)NC(=O)CC[C@H](NC(=O)CCCCCCCCCCCCCCCCCCC(=O)O)C(=O)O)[C@@H](C)O)C(C)C)C(=O)N[C@@H](CO)C(=O)N[C@@H](CCC(N)=O)C(=O)N[C@@H](CCC(=O)O)C(=O)N[C@@H](CC(C)C)C(=O)N[C@@H](Cc1c[nH]cn1)C(=O)N[C@@H](CCCNC(=N)N)C(=O)N[C@@H](CC(C)C)C(=O)N[C@@H](CCC(N)=O)C(=O)N[C@@H](CC(=O)O)C(=O)N[C@@H](Cc1ccc(O)cc1)C(=O)N1CCC[C@H]1C(=O)N[C@@H](CCCNC(=N)N)C(=O)N[C@H](C(=O)N[C@@H](CC(=O)O)C(=O)N[C@H](C(=O)NCC(=O)N[C@@H](CO)C(=O)NCC(=O)N[C@@H](CO)C(=O)N1CCC[C@H]1C(N)=O)C(C)C)[C@@H](C)O
- EC50/nM, CRE-luciferase in amylin receptor/CRE-luc CHO cells: 0.052 nM

Binder: ASQLSTAVLGRLSQELHRLQDYPRTDVGSGSP-NH2 [calcitonin analogue M5]
- EC50/nM, CRE-luciferase in amylin receptor/CRE-luc CHO cells: 0.033 nM

Second part, the binder after the results:

- EC50/nM, CRE-luciferase in amylin receptor/CRE-luc CHO cells: 0.017 nM
B2: calcitonin derivative M67 (peptide)
peptide: {C22 diacid-γGlu-AEEA-AEEA-AEEA-AEEA}-ASQLSTAVLGRLSEELHRLQDYPRTDVGSGSP-NH2
SMILES: CC(C)C[C@H](NC(=O)[C@H](CCCNC(=N)N)NC(=O)CNC(=O)[C@H](CC(C)C)NC(=O)[C@@H](NC(=O)[C@H](C)NC(=O)[C@@H](NC(=O)[C@H](CO)NC(=O)[C@H](CC(C)C)NC(=O)[C@H](CCC(N)=O)NC(=O)[C@H](CO)NC(=O)[C@H](C)NC(=O)COCCOCCNC(=O)COCCOCCNC(=O)COCCOCCNC(=O)COCCOCCNC(=O)CC[C@H](NC(=O)CCCCCCCCCCCCCCCCCCCCC(=O)O)C(=O)O)[C@@H](C)O)C(C)C)C(=O)N[C@@H](CO)C(=O)N[C@@H](CCC(=O)O)C(=O)N[C@@H](CCC(=O)O)C(=O)N[C@@H](CC(C)C)C(=O)N[C@@H](Cc1c[nH]cn1)C(=O)N[C@@H](CCCNC(=N)N)C(=O)N[C@@H](CC(C)C)C(=O)N[C@@H](CCC(N)=O)C(=O)N[C@@H](CC(=O)O)C(=O)N[C@@H](Cc1ccc(O)cc1)C(=O)N1CCC[C@H]1C(=O)N[C@@H](CCCNC(=N)N)C(=O)N[C@H](C(=O)N[C@@H](CC(=O)O)C(=O)N[C@H](C(=O)NCC(=O)N[C@@H](CO)C(=O)NCC(=O)N[C@@H](CO)C(=O)N1CCC[C@H]1C(N)=O)C(C)C)[C@@H](C)O

- EC50/nM, CRE-luciferase in amylin receptor/CRE-luc CHO cells: 0.017 nM
B5: calcitonin derivative M54 (peptide)
peptide: {C20 diacid}-DASQLSTAVLGRLSEELHRLQDYPRTDVGSGSP-NH2
SMILES: CC(C)C[C@H](NC(=O)[C@H](CCCNC(=N)N)NC(=O)CNC(=O)[C@H](CC(C)C)NC(=O)[C@@H](NC(=O)[C@H](C)NC(=O)[C@@H](NC(=O)[C@H](CO)NC(=O)[C@H](CC(C)C)NC(=O)[C@H](CCC(N)=O)NC(=O)[C@H](CO)NC(=O)[C@H](C)NC(=O)[C@H](CC(=O)O)NC(=O)CCCCCCCCCCCCCCCCCCC(=O)O)[C@@H](C)O)C(C)C)C(=O)N[C@@H](CO)C(=O)N[C@@H](CCC(=O)O)C(=O)N[C@@H](CCC(=O)O)C(=O)N[C@@H](CC(C)C)C(=O)N[C@@H](Cc1c[nH]cn1)C(=O)N[C@@H](CCCNC(=N)N)C(=O)N[C@@H](CC(C)C)C(=O)N[C@@H](CCC(N)=O)C(=O)N[C@@H](CC(=O)O)C(=O)N[C@@H](Cc1ccc(O)cc1)C(=O)N1CCC[C@H]1C(=O)N[C@@H](CCCNC(=N)N)C(=O)N[C@H](C(=O)N[C@@H](CC(=O)O)C(=O)N[C@H](C(=O)NCC(=O)N[C@@H](CO)C(=O)NCC(=O)N[C@@H](CO)C(=O)N1CCC[C@H]1C(N)=O)C(C)C)[C@@H](C)O
